# Key:
# Experiment in all cases: Kinase Profiling Assay
# [1] = test system: p70S6K(h); assay type: biochemical, human; settings: 100 μM
# [2] = target: T1, PhKγ2(h) (Homo sapiens, UniProt P15735); assay type: biochemical; settings: 100 μM
# T1 sequence (P15735 1-406): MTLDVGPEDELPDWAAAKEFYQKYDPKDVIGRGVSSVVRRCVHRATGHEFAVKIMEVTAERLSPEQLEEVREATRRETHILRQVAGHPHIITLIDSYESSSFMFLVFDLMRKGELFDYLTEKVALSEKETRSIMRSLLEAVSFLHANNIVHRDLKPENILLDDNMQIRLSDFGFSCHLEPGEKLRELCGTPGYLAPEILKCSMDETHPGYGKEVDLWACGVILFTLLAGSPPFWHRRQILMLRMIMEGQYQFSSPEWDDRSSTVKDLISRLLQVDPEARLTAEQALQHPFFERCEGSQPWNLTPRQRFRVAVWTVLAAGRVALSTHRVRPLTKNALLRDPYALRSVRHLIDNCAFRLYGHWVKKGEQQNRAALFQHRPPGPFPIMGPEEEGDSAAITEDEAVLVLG
# [3] = target: MARK1(h) (Homo sapiens, UniProt Q9P0L2); assay type: biochemical; settings: 100 μM
# [4] = target: Lck(h) activated (Homo sapiens, UniProt P06239); assay type: biochemical; settings: 100 μM
# [5] = target: FGFR4(h) (Homo sapiens, UniProt P22455); assay type: biochemical; settings: 100 μM
# [6] = target: T2, MKK6(h) (Homo sapiens, UniProt P52564); assay type: biochemical; settings: 100 μM
# T2 sequence (P52564 1-334): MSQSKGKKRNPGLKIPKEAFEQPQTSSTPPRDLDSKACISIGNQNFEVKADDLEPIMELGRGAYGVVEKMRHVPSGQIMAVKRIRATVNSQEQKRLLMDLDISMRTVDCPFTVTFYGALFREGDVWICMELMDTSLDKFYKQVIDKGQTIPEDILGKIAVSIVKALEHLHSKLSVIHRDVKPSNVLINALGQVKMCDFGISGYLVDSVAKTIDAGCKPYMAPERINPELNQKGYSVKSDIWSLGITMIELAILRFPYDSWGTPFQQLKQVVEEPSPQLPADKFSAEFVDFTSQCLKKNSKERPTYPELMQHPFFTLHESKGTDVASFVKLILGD
# [7] = target: FAK(h) (Homo sapiens, UniProt Q05397); assay type: biochemical; settings: 100 μM
# [8] = target: TrkA(h) (Homo sapiens, UniProt P04629); assay type: biochemical
# [9] = target: T3, NEK2(h) (Homo sapiens, UniProt P51955); assay type: biochemical; settings: 100 μM
# T3 sequence (P51955 1-445): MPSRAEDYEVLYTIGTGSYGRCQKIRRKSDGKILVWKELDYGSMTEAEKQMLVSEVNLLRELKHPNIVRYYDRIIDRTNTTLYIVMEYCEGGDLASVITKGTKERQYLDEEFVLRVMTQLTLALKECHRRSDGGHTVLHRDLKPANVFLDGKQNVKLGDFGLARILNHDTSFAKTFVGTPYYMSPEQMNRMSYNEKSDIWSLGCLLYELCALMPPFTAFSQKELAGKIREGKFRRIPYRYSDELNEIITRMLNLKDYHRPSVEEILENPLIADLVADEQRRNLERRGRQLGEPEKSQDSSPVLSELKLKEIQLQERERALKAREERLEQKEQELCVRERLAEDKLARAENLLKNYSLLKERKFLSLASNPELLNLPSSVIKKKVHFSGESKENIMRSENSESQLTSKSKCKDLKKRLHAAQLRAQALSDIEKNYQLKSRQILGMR
# [10] = target: CaMKIδ(h) (Homo sapiens, UniProt Q8IU85); assay type: biochemical; settings: 100 μM
# [11] = target: T4, BrSK2(h) (Homo sapiens, UniProt Q8IWQ3); assay type: biochemical
# T4 sequence (Q8IWQ3 1-736): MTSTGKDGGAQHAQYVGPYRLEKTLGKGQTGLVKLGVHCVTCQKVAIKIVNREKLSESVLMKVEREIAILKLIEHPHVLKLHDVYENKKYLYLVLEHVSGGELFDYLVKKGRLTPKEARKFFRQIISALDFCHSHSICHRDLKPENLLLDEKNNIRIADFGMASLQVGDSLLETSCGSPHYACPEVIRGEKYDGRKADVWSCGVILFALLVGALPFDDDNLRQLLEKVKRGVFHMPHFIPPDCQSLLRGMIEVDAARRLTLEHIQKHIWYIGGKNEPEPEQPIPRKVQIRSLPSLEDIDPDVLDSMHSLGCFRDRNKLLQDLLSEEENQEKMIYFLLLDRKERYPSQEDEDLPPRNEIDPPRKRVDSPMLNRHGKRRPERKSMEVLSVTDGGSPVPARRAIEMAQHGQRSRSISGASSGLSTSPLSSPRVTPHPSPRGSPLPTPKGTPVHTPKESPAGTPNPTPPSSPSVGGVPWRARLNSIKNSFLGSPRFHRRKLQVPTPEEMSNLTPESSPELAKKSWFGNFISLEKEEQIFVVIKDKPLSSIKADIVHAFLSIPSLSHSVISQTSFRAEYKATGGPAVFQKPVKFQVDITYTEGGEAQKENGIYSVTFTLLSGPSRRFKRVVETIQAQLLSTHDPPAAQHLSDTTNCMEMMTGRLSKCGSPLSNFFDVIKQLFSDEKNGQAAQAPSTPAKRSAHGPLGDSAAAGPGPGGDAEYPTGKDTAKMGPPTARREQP
# [12] = target: T5, TAK1(h) (Homo sapiens, UniProt O43318); assay type: biochemical; settings: 100 μM
# T5 sequence (O43318 1-303 limits assumed): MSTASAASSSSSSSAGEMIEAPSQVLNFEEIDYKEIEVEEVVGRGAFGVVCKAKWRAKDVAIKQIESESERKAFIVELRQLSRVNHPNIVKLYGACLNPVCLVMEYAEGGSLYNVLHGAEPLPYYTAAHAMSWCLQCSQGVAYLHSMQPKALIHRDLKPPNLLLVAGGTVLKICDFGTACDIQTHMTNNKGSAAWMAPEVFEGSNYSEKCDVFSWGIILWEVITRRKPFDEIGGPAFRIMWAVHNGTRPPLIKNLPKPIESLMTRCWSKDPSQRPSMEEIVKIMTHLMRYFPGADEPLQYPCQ
# [13] = target: PAK3(h) (Homo sapiens, UniProt O75914); assay type: biochemical; settings: 100 μM
# [14] = target: IGF-1R(h) (Homo sapiens, UniProt P08069); assay type: biochemical; settings: 100 μM
# FAK(h), sequence (Q05397 whole entry): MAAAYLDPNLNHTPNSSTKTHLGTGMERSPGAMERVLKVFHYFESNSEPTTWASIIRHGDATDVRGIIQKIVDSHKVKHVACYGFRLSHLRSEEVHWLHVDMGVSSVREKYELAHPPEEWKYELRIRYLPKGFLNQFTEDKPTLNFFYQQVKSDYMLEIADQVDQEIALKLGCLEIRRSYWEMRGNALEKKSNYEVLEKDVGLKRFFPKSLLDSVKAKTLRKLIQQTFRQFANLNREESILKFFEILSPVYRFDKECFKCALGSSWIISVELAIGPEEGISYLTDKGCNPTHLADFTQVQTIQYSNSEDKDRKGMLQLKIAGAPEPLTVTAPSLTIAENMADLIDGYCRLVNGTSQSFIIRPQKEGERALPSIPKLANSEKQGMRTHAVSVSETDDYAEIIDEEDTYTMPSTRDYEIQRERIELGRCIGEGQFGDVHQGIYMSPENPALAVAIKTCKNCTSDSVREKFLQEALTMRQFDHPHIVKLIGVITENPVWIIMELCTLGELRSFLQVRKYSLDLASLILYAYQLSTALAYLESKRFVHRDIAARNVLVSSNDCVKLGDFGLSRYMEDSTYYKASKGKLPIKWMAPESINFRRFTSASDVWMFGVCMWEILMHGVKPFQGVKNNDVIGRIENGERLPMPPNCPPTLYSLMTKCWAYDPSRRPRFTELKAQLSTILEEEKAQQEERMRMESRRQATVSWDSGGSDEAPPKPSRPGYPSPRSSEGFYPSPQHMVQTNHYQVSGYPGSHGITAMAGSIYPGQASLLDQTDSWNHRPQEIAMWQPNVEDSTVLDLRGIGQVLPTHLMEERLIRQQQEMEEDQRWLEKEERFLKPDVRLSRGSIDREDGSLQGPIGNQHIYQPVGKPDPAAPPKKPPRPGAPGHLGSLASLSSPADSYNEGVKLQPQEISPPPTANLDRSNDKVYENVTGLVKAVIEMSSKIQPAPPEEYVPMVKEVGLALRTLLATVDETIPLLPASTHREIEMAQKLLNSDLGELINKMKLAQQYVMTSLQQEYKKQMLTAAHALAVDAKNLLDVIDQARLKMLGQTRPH
# CaMKIδ(h), sequence (Q8IU85 whole entry): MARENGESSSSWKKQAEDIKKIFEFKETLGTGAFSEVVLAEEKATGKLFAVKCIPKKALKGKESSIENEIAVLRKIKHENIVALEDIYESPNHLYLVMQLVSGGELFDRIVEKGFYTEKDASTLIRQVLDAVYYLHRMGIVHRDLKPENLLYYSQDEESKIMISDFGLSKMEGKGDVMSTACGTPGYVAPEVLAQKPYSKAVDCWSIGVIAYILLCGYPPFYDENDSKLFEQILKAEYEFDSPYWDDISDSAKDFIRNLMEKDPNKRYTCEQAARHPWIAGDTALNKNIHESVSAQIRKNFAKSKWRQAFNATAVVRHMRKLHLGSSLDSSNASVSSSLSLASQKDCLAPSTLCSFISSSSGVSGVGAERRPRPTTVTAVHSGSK
# Lck(h) activated, sequence (P06239 whole entry): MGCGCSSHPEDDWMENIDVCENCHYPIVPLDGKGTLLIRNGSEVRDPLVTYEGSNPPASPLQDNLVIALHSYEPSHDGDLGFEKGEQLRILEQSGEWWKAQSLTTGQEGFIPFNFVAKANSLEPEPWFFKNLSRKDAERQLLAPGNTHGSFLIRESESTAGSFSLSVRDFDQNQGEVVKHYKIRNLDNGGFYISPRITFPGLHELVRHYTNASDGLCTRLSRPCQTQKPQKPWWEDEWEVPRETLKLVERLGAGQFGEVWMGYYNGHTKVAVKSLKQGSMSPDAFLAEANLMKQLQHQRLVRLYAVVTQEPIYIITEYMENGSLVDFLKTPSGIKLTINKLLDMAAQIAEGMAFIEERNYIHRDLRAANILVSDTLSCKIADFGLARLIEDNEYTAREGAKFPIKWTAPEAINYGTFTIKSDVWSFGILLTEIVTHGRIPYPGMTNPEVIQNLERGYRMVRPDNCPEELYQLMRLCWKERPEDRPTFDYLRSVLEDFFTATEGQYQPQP
# TrkA(h), sequence (P04629 33-796): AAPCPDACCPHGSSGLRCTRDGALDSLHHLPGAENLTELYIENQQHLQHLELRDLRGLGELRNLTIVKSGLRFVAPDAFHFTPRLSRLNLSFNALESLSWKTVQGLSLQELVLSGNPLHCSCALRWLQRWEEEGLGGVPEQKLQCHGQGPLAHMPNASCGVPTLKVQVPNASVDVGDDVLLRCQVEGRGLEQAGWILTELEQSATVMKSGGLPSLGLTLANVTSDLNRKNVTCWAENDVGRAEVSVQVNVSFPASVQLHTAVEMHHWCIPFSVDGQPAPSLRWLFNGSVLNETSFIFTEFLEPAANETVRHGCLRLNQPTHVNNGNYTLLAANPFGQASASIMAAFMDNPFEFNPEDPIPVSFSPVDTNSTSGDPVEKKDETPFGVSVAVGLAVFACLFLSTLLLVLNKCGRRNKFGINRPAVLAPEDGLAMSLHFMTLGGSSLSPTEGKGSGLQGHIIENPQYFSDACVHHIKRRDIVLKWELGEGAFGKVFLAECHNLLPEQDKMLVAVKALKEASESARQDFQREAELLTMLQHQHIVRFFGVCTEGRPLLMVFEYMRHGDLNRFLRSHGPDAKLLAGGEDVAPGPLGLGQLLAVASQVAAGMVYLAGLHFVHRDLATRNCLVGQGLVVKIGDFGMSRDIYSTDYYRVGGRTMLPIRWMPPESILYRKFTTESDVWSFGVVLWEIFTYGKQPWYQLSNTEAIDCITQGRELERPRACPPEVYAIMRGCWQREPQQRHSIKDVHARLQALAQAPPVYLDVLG
# PAK3(h), sequence (O75914 whole entry): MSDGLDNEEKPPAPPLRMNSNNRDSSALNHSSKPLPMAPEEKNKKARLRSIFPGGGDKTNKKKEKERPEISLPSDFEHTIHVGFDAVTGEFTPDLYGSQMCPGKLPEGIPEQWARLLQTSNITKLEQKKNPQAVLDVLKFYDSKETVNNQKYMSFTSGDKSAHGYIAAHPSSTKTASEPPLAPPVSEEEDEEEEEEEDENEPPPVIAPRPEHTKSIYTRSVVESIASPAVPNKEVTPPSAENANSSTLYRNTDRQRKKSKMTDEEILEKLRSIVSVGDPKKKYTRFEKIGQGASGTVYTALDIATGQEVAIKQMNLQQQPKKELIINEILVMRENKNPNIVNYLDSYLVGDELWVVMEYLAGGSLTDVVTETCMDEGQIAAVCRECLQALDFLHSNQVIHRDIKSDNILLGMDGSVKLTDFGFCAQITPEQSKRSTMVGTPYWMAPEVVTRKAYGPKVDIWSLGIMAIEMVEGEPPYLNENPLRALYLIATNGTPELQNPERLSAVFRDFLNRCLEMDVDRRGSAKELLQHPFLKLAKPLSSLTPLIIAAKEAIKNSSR
# MARK1(h), sequence (Q9P0L2 whole entry): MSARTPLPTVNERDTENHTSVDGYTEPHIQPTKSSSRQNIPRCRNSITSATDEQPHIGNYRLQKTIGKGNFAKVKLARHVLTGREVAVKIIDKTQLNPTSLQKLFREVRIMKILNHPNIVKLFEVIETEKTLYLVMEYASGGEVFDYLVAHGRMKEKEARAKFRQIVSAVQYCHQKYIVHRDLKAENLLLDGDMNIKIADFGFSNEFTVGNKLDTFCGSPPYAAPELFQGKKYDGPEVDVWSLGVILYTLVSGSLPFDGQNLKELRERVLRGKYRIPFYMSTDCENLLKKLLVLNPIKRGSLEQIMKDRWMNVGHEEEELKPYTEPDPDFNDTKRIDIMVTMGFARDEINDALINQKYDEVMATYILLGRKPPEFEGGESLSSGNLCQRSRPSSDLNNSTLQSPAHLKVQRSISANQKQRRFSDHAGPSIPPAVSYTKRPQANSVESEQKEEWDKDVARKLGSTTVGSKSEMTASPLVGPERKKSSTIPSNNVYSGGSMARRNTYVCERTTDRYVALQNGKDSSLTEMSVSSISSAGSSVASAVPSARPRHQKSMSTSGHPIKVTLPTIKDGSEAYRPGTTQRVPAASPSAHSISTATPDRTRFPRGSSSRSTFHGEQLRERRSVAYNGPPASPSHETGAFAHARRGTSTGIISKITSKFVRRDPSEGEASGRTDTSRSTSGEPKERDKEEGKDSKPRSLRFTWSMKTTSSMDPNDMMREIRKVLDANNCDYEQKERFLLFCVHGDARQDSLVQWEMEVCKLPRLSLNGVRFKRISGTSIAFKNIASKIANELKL
Substance,% activity [1] [%],% activity [2] [%],% activity [3] [%],% activity [4] [%],% activity [5] [%],% activity [6] [%],% activity [7] [%],% activity ([8]; 100 μM) [%],% activity [9] [%],% activity [10] [%],% activity ([11]; 100 μM) [%],% activity [12] [%],% activity [13] [%],% activity [14] [%],activity at 100 µM [8] [%],activity at 100 µM [11] [%]
HRRIKAWLKKIKALARQLGVAA (Mammalian) [MMI-0500],3,16,110,76,3,18,94,24,0,0,84,–,–,–,–,–
YARAAARQARAKALNRQLGVA (Mammalian) [MMI-0200],84,86,–,90,75,98,110,–,97,47,–,124,50,49,–,–
H-YARAAARQARAKALARQLGVAA-OH [MMI-0100],–,–,–,–,–,–,–,–,–,–,–,–,–,–,74,129

# From patent US10087225B2, “Formulation of MK2 inhibitor peptides” (MOERAE MATRIX, INC., priority 2015, dated 2018)
